Read-outs that look alike come from different tables or passages of the source.
Assays:
[1] = target: T1, human CD47 on the cell surface (human, UniProt Q08722 19-323); experiment: flow cytometry, CHO CD47 cells; competitor biotinylated SIRPα; by the text maximum inhibition normalised to PRO2777
T1 construct: whole, on cells; also called plasma membranous CD47; CHO CD47 cells

[2] = target: T1, human CD47 on the cell surface; experiment: flow cytometry, NCI-H292 cells (CD47+ PD-L1+); competitor biotinylated SIRPα; column head prints EC50
[3] = target: T1, human CD47 on the cell surface; experiment: flow cytometry, HT-29 cells (CD47+, no PD-L1)
[4] = target: T1, human CD47 on the cell surface; experiment: flow cytometry, CHO CD47 cells; competitor biotinylated SIRPα; column head prints EC50
[5] = target: T1, human CD47 on the cell surface; experiment: flow cytometry, human erythrocytes
[6] = target: T2, human PD-L1 on the cell surface (human, UniProt Q9NZQ7 19-290); experiment: cell-based or functional assay
[7] = target: T1, human CD47 on the cell surface; experiment: cell-based or functional assay
[8] = target: T1, human CD47 on the cell surface; experiment: flow cytometry, NCI-H292 cells; competitor biotinylated SIRPα; by the text maximum inhibition normalised to PRO2777
recombinant human CD47 [9] = target: T3, recombinant human CD47 (human, UniProt Q08722 19-139, limits assumed); experiment: SPR, antigen immobilised, antibody as analyte
recombinant human PDL1 [10] = target: T4, recombinant human PDL1 (human, UniProt Q9NZQ7 19-238, limits assumed); experiment: SPR, antigen immobilised, antibody as analyte
T4 construct: SPR antigen; also called CD274; B7-H1

[11] = target: T2, human PD-L1 on the cell surface; experiment: cell-based or functional assay; remark: listed apart in the source
[12] = target: T2, human PD-L1 on the cell surface; experiment: cell-based or functional assay; remark: listed apart in the source
[13] = target: T1, human CD47 on the cell surface; experiment: cell-based or functional assay; remark: listed apart in the source
recombinant human CD47 [14] = target: T3, recombinant human CD47; experiment: SPR, antigen immobilised, antibody as analyte; remark: listed apart in the source
recombinant human PDL1 [15] = target: T4, recombinant human PDL1; experiment: SPR, antigen immobilised, antibody as analyte; remark: listed apart in the source

B1: PRO3790 (bispecific antibody, human IgG1, kappa)
chain: DVQMTQSPSSLSASVGDRVTITCQASQSISSWVSWYQQKPGKPPKLLIYRGGYLESGVPSRFSASGSGTDFTLTISSLQPEDFATYYCQSTDSSTYGGAFGCGTKVTVLGGGGGSGGGGSGGGGSGGGGSQQVVESGGGLVQPGGSLRLSCAVSGIDLNSYAMTWVRQAPGKCLEWIGYIGSASSTYYASWASGRFTISKDNSKNTVYLQMNSLRAEDSAVYFCARGSTYINIWGQGTLVKVSSEPKSSDKTHTCPPCPAPELLGGPSVFLFPPKPKDTLMISRTPEVTCVVVDVSHEDPEVKFNWYVDGVEVHNAKTKPREEQYNSTYRVVSVLTVLHQDWLNGKEYKCKVSNKALPAPIEKTISKAKGQPREPQVYTLPPCREEMTKNQVSLSCAVKGFYPSDIAVEWESNGQPENNYKTTPPVLDSDGSFFLVSKLTVDKSRWQQGNVFSCSVMHEALHNHYTQKSLSLSPGK
heavy: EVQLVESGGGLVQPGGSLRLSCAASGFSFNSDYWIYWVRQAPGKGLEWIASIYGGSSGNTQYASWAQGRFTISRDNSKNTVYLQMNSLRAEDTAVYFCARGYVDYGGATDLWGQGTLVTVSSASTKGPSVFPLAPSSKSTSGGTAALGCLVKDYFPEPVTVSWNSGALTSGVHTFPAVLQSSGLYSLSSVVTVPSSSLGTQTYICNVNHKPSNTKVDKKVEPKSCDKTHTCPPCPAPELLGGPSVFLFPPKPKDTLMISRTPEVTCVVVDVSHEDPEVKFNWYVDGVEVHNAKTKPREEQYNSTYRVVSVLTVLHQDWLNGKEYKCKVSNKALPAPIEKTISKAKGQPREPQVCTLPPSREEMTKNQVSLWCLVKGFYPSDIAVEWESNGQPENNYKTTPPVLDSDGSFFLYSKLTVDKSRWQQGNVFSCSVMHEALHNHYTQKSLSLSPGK
light: DIQMTQSPASLSASVGDRVTITCQASQSIGTYLAWYQQKPGKPPKLLIYRAFILASGVPSRFSGSGSGTDFTLTISSLQPEDFATYYCQSNFYSDSTTIGPNAFGQGTKVEIKRTVAAPSVFIFPPSDEQLKSGTASVVCLLNNFYPREAKVQWKVDNALQSGNSQESVTEQDSKDSTYSLSSTLTLSKADYEKHKVYACEVTHQGLSSPVTKSFNRGEC
notes: anti-CD47 x PDL1: 70-26-B04-sc03 scFv on hole-Fc, 37-20-B03-sc09.1 Fab on knob-Fc
[1]
  Rel. maximum binding (max. MFI sample / max. MFI magrolimab): 87
[2]
  IC50: 0.068 nM
[3]
  EC50: > 100 nM
[4]
  IC50: 110 nM
[5]
  EC50: 98.8 nM
[6]
  PD-L1 driven EC50 [nM], phagocytosis of H292 cells: 0.04 nM
[7]
  CD47 driven EC50 [nM], phagocytosis of H292 cells: 31.2 nM
[8]
  Rel. maximum binding (max. MFI sample / max. MFI magrolimab): 92.5
Recombinant human CD47 [9]
  Kd: 35 nM
  koff: 0.0235 s⁻¹
  kon: 672000 M⁻¹ s⁻¹
Recombinant human PDL1 [10]
  Kd: 0.0759 nM
  koff: 4.19e-05 s⁻¹
  kon: 552000 M⁻¹ s⁻¹
[11]
  EC50 [nM], PD-L1 / PD-1 transgenic NFAT reporter gene assay: 0.272 nM

B2: PRO5053 (antibody)
chain 1: DVQMTQSPSSLSASVGDRVTITCQASQSISSWVSWYQQKPGKPPKLLIYRGGYLESGVPSRFSASGSGTDFTLTISSLQPEDFATYYCQSTDSSTYGGAFGCGTKVTVLGGGGGSGGGGSGGGGSGGGGSQQVVESGGGLVQPGGSLRLSCAVSGIDLNSYAMTWVRQAPGKCLEWIGYIGSASSTYYASWASGRFTISKDNSKNTVYLQMNSLRAEDSAVYFCARGSTYINIWGQGTLVKVSSEPKSSDKTHTCPPCPAPELLGGPSVFLFPPKPKDTLMISRTPEVTCVVVDVSHEDPEVKFNWYVDGVEVHNAKTKPREEQYNSTYRVVSVLTVLHQDWLNGKEYKCKVSNKALPAPIEKTISKAKGQPREPQVYTLPPCREEMTKNQVSLSCAVKGFYPSDIAVEWESNGQPENNYKTTPPVLDSDGSFFLVSKLTVDKSRWQQGNVFSCSVMHEALHNHYTQKSLSLSPGKGGGGSGGGGSDIQMTQSPSSLSASVGDRVTITCQSSESVYSNNQLSWYQQKPGQPPKLLIYDASDLASGVPSRFSGSGSGTDFTLTISSLQPEDFATYYCAGGFSSSSDTAFGCGTKLTVLGGGGGSGGGGSGGGGSGGGGSEVQLVESGGGLVQPGGSLRLSCAASGFSLSSNAMGWVRQAPGKCLEYIGIISVGGFTYYASWAKGRFTISRDNSKNTVYLQMNSLRAEDSATYFCARDRHGGDSSGAFYLWGQGTLVKVSS
chain 2: not shown
notes: anti-PDL1 x CD47 x (hSA dummy domain); also called PRO5052 with dummy domain for LILRB2-BD
[12]
  PD-L1 driven EC50 [nM], phagocytosis of H292 cells: 0.18 nM
[13]
  CD47 driven EC50 [nM], phagocytosis of A375 cells: 27.5 nM
  CD47 driven EC50 [nM], phagocytosis of H292 cells: 28.4 nM
[6]
  PD-L1 driven EC50 [nM], phagocytosis of H292 cells: 0.19 nM
[7]
  CD47 driven EC50 [nM], phagocytosis of H292 cells: 28.2 nM
Recombinant human CD47 [14]
  Kd: 49.7 nM
  koff: 0.0265 s⁻¹
  kon: 533000 M⁻¹ s⁻¹
Recombinant human PDL1 [15]
  Kd: 0.0133 nM
  koff: 2.72e-05 s⁻¹
  kon: 2.05e+06 M⁻¹ s⁻¹

Reference: patent EP4574844A1 (Numab Therapeutics AG, dated 2025)
